Test results published in PMC10192046.

Target: T1, interferon regulatory factor 3 (human (endogenous in THP-1)), Q14653
T1 chain: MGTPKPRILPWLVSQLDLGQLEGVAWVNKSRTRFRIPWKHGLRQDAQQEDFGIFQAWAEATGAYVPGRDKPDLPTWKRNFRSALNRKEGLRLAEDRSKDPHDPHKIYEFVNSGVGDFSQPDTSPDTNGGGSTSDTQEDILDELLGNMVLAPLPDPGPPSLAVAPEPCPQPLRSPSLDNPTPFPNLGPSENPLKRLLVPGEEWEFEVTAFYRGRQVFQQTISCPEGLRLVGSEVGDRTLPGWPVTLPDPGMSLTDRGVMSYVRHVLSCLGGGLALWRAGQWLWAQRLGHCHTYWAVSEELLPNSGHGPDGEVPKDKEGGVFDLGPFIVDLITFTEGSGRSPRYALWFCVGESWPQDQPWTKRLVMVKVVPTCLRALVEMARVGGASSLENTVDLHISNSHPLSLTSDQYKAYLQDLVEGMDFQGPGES
Experiment: native gel or EMSA
Settings: remark: other sources report otherwise

stoichiometry N: 2
B1: interferon regulatory factor 3, Q14653 1-427 (natural protein)
chain: MGTPKPRILPWLVSQLDLGQLEGVAWVNKSRTRFRIPWKHGLRQDAQQEDFGIFQAWAEATGAYVPGRDKPDLPTWKRNFRSALNRKEGLRLAEDRSKDPHDPHKIYEFVNSGVGDFSQPDTSPDTNGGGSTSDTQEDILDELLGNMVLAPLPDPGPPSLAVAPEPCPQPLRSPSLDNPTPFPNLGPSENPLKRLLVPGEEWEFEVTAFYRGRQVFQQTISCPEGLRLVGSEVGDRTLPGWPVTLPDPGMSLTDRGVMSYVRHVLSCLGGGLALWRAGQWLWAQRLGHCHTYWAVSEELLPNSGHGPDGEVPKDKEGGVFDLGPFIVDLITFTEGSGRSPRYALWFCVGESWPQDQPWTKRLVMVKVVPTCLRALVEMARVGGASSLENTVDLHISNSHPLSLTSDQYKAYLQDLVEGMDFQGPGES
